Reference: patent publication US20190032049

What was measured:
[1] = tested on: tetR:KRAB (tetR:K) (Escherichia coli); experiment: cell_activity; conditions: no doxycycline, stable expression, AAVS1/TetO7 K562
[2] = tested on: tetR:DNMT3A (tetR:D3A) (Escherichia coli); experiment: cell_activity; conditions: no doxycycline, stable expression, slower kinetics

## TetO7 (seven tandem TetO repeats)
[1]
  activity (% eGFP-negative cells): 100
[2]
  activity (% eGFP-negative cells): 100
